Data published in article PMC8605244 (The Journal of Biological Chemistry, 2021).

Key:
[1] = biological target: T1, H-Ras, biotinylated, loaded with a nonhydrolyzable GTP analog (Ras-GTP) or with GDP (Ras-GDP) (UniProt P01112 1-189, biotin on the AVI-tag (attached in vivo by BirA)); assay: SPR; OpenSPR, streptavidin chip; biotinylated Ras in the GDP-bound state immobilised at 50 ug/ml; RASSF5 variants injected at 1.25-20 uM; Ras buffer (Tris 20 mM, NaCl 100 mM, MgCl2 5 mM, pH 7.5) with 0.1% Tween20 and 0.5% BSA; 30 ul/min; settings: both partners purified
T1 construct: H-Ras; One construct used in two nucleotide states; also called biotinylated-Ras; not shown: His tag, N-terminal, cleaved; AVI-tag, C-terminal, kept
T1 sequence (P01112 whole entry): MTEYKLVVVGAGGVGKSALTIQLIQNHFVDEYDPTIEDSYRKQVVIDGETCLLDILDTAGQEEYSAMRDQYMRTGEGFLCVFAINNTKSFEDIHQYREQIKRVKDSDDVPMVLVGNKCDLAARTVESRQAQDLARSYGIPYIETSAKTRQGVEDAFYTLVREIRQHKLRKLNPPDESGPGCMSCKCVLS

[2] = biological target: T1, H-Ras, biotinylated, loaded with a …; assay: SPR; OpenSPR, streptavidin chip; biotinylated Ras in the GTP-bound state (nonhydrolyzable analog) immobilised at 50 ug/ml; RASSF5 variants injected at 1.25-20 uM; Ras buffer (Tris 20 mM, NaCl 100 mM, MgCl2 5 mM, pH 7.5) with 0.1% Tween20 and 0.5% BSA; 30 ul/min; settings: both partners purified

Kd [1] [nM] | Kd [2] [nM] | Binder
1600 ± 300 | – | RASSF5 RA domain mutant D2 (RTRHWKR) (designed binder, RASSF5 (NORE1A) RA domain, residues 205-362, with RTRHWKR at positions 218, 219, 220, 221, 234, 286, 305 (WT: KHCLFHM); The numbers follow PDB 3DDC; Selected by yeast surface display against Ras-GDP; source: E. coli BL21(DE3), pET28a, purified (Ni beads, Superdex75 SEC)) EIKQKIDSYNSRERTRHGMKLSEDGTYTGWIKVHLKLRRPVTVPAGIRPQSIYDAIKEVNPAATTDKRTSFYLPLDAIKQLKISSTTTVSEVIQGLLKKFRVVDNPQKFALFKRIHKDGQVLFQKLSIADYPLYLRLLAGPDTDVLSFVLKENETGEV
3000 ± 500 | – | RASSF5 RA domain mutant T2 (YRRLYKR) (designed binder, RASSF5 (NORE1A) RA domain, residues 205-362, with YRRLYKR at positions 218, 219, 220, 221, 234, 286, 305 (WT: KHCLFHM); The numbers follow PDB 3DDC; Selected by yeast surface display against Ras-GTP; source: E. coli BL21(DE3), pET28a, purified (Ni beads, Superdex75 SEC)) EIKQKIDSYNSREYRRLGMKLSEDGTYTGYIKVHLKLRRPVTVPAGIRPQSIYDAIKEVNPAATTDKRTSFYLPLDAIKQLKISSTTTVSEVIQGLLKKFRVVDNPQKFALFKRIHKDGQVLFQKLSIADYPLYLRLLAGPDTDVLSFVLKENETGEV
1600 ± 300 | 1000 ± 150 | RASSF5 RA domain mutant T3 (WSRLYKR) (designed binder, RASSF5 (NORE1A) RA domain, residues 205-362, with WSRLYKR at positions 218, 219, 220, 221, 234, 286, 305 (WT: KHCLFHM); The numbers follow PDB 3DDC; Selected by yeast surface display against Ras-GTP; source: E. coli BL21(DE3), pET28a, purified (Ni beads, Superdex75 SEC)) EIKQKIDSYNSREWSRLGMKLSEDGTYTGYIKVHLKLRRPVTVPAGIRPQSIYDAIKEVNPAATTDKRTSFYLPLDAIKQLKISSTTTVSEVIQGLLKKFRVVDNPQKFALFKRIHKDGQVLFQKLSIADYPLYLRLLAGPDTDVLSFVLKENETGEV
1600 ± 200 | – | RASSF5 RA domain mutant D3 (FRKFWHK) (designed binder, RASSF5 (NORE1A) RA domain, residues 205-362, with FRKFWHK at positions 218, 219, 220, 221, 234, 286, 305 (WT: KHCLFHM); The numbers follow PDB 3DDC; Selected by yeast surface display against Ras-GDP; source: E. coli BL21(DE3), pET28a, purified (Ni beads, Superdex75 SEC)) EIKQKIDSYNSREFRKFGMKLSEDGTYTGWIKVHLKLRRPVTVPAGIRPQSIYDAIKEVNPAATTDKRTSFYLPLDAIKQLHISSTTTVSEVIQGLLKKFKVVDNPQKFALFKRIHKDGQVLFQKLSIADYPLYLRLLAGPDTDVLSFVLKENETGEV
